From paper PMC7057995, “Structural basis of RNA polymerase I pre-initiation complex formation and promoter melting”

Columns and labels:
CF with Rrn7 Δα4a = CF with Rrn7 Δα4a (Saccharomyces cerevisiae, UniProt P32786;P40992;Q04712 1-894;1-208+221-514;1-507, internal_change); test: EMSA; 0.2 pmol DNA; 0.25-1 pmol CF; binding not impaired; EMSA: 20 mM HEPES/KOH pH 7.8, 10% glycerol, 200 mM KCl, 1 mM MgCl2, 0.1 mg/ml BSA, 1 mM DTT, 30 min, temperature not stated; 6% native gel, 0.5x TBE; conditions: protein: recombinant; tags: His (Ni-NTA purified); copies: 1;1;1; label: NTS -3 Atto647N; TS -5 Cy3; blunt
CF with Rrn7 Δloop α7-α8 = CF with Rrn7 Δloop α7-α8 (Saccharomyces cerevisiae, UniProt P32786;P40992;Q04712 1-894;1-286+298-514;1-507, internal_change); test: as above; conditions: protein: recombinant; tags: His (Ni-NTA purified); copies: 1;1;1; label: NTS -3 Atto647N; TS -5 Cy3; blunt
[1] = molecular target: RNA polymerase I;Rrn3;Core factor (CF) wild type: Rrn6/Rrn7/Rrn11;UAF … (Saccharomyces cerevisiae;Saccharomyces …, UniProt P10964;P22138;P07703;P46669;P50106;P20434;P20435;P28000;P20436;P32529;P22139;P40 …, |||||); test: size exclusion chromatography; complete early PIC, stable throughout SEC; EMSA: 20 mM HEPES/KOH pH 7.8, 10% glycerol, 200 mM KCl, 1 mM MgCl2, 0.1 mg/ml BSA, 1 mM DTT, 30 min, temperature not stated; 6% native gel, 0.5x TBE

Sequence of CF with Rrn7 Δα4a (P32786 whole entry, stated change not applied, chain 1 of 3): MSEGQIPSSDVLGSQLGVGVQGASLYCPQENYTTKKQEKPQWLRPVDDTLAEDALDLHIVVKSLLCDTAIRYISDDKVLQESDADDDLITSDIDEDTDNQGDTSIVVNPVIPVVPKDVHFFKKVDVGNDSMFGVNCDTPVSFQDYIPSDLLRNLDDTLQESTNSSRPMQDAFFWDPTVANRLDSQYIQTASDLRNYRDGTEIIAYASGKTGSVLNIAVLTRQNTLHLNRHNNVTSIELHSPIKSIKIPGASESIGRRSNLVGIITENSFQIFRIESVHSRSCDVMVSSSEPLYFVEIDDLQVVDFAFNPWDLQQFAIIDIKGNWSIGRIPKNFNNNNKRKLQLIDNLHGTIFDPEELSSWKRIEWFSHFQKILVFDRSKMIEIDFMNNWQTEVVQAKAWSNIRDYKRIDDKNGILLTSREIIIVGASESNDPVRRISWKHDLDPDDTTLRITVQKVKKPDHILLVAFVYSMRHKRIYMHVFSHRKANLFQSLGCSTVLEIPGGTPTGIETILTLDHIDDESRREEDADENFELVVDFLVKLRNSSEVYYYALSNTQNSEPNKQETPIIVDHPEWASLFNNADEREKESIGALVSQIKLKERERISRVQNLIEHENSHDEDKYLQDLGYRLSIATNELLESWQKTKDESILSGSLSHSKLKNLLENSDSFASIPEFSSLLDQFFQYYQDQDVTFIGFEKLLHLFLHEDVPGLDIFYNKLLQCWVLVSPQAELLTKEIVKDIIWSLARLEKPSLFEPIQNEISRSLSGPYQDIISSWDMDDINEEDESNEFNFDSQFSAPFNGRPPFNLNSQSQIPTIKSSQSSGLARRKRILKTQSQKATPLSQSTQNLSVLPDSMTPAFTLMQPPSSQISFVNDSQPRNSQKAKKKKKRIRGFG
Sequence of CF with Rrn7 Δα4a (P40992 other isoform, or with tags, fused parts or gaps | mutant, chain 2 of 3): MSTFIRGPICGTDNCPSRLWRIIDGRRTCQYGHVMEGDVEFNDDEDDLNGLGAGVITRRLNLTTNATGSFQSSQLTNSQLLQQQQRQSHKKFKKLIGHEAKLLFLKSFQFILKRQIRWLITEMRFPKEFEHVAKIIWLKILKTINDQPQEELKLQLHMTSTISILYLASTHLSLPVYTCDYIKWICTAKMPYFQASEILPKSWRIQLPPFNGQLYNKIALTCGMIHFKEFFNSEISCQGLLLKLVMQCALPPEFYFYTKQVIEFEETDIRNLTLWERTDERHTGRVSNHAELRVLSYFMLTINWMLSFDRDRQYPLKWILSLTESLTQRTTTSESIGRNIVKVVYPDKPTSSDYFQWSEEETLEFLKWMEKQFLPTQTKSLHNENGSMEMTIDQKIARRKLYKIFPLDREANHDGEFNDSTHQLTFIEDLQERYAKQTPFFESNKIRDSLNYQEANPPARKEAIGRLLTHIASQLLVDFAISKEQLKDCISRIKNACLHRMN
Sequence of CF with Rrn7 Δα4a (Q04712 whole entry, stated change not applied, chain 3 of 3): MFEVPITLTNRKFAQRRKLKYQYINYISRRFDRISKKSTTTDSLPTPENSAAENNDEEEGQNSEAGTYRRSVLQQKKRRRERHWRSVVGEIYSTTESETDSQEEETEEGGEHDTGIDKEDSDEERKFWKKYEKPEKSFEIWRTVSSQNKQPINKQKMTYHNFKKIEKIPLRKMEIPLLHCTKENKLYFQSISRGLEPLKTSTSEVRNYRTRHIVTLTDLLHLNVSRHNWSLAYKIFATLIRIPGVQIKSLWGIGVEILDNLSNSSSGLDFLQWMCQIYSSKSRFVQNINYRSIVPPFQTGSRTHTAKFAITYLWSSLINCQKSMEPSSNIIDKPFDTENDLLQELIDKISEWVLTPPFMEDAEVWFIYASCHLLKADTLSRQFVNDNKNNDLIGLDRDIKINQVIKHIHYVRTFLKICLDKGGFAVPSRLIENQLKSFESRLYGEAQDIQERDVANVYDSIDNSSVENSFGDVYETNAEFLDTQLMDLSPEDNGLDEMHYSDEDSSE
Sequence of CF with Rrn7 Δloop α7-α8 (P32786 whole entry, stated change not applied, chain 1 of 3): as the sequence (P32786 whole entry, stated change not applied, chain 1 of 3) above
Sequence of CF with Rrn7 Δloop α7-α8 (P40992 other isoform, or with tags, fused parts or gaps | mutant, chain 2 of 3): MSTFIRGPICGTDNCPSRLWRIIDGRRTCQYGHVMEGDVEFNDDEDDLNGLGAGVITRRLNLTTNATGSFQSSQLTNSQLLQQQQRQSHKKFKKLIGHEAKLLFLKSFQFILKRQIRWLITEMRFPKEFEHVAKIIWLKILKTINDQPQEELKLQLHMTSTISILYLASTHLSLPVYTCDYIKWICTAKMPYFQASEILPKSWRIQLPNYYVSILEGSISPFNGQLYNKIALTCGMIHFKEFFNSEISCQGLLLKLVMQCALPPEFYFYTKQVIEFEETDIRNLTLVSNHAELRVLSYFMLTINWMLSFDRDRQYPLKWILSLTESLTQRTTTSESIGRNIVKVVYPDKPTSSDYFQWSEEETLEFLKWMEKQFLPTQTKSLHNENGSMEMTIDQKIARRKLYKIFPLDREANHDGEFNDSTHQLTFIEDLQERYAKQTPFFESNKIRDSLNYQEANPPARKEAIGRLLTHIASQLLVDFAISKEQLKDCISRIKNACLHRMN
Sequence of CF with Rrn7 Δloop α7-α8 (Q04712 whole entry, stated change not applied, chain 3 of 3): as the sequence (Q04712 whole entry, stated change not applied, chain 3 of 3) above

B1: rDNA promoter -83 to +26 (EMSA; ID 4691/4692) (dsDNA)
DNA 1: AAAAGTAAGATTTTAGTTTGTAATGGGAGGGGGAATTTAGTCATGGAGTACAAGTGTGAGGAAAAGTAGTTGGGAGGTACTTCATACCAAAGGGGTTCAACACAAGGGT
DNA 2: ACCCTTGTGTTGAACCCCTTTGGTATGAAGTACCTCCCAACTACTTTTCCTCACACTTGTACTCCATGACTAAATTCCCCCTCCCATTACAAACTAAAATCTTACTTTT
CF with Rrn7 Δα4a
  binding result: binds
CF with Rrn7 Δloop α7-α8
  binding result: binds

B2: rDNA promoter -155 to +8 (PIC scaffold; ID 4693/4694) (dsDNA)
DNA 1: AGCTTAAATTGAAGTTTTTCTCGGCGAGAAATACGTAGTTAAGGCAGAGCGACAGAGAGGGCAAAAGAAAATAAAAGTAAGATTTTAGTTTGTAATGGGAGGGGGGGTTTAGTCATGGAGTACAAGTGTGAGGAAAAGTAGTTGGGAGGTACTTCATGCGAAA
DNA 2: TTTCGCATGAAGTACCTCCCAACTACTTTTCCTCACACTTGTACTCCATGACTAAACCCCCCCTCCCATTACAAACTAAAATCTTACTTTTATTTTCTTTTGCCCTCTCTGTCGCTCTGCCTTAACTACGTATTTCTCGCCGAGAAAAACTTCAATTTAAGCT
[1]
  binding result: binds
